# Assay results published in PMC9482650, “Quantitative fragmentomics allow affinity mapping of interactomes” (Nature Communications, 2022).
# Changes are numbered by the printed parent chain.
# T1: LIN7C, Q9NUP9
# T1 sequence (Q9NUP9 88-185, limits assumed, looked up): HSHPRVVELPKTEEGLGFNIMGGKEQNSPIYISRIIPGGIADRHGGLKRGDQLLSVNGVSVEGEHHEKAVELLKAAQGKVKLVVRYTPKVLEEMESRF
# T2: RAPGEF6, Q8TEU7
# T2 sequence (Q8TEU7 525-625, limits assumed, looked up): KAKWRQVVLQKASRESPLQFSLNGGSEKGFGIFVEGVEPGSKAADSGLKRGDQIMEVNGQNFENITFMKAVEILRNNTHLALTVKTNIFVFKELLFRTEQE
# T3: SNTB1, Q13884
# T3 sequence (Q13884 107-205, limits assumed, looked up): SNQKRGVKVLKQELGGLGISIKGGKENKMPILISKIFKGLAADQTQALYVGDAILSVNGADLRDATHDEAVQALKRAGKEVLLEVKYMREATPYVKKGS
# T4: TIAM2, Q8IVF5
# T4 sequence (Q8IVF5 885-986, limits assumed, looked up): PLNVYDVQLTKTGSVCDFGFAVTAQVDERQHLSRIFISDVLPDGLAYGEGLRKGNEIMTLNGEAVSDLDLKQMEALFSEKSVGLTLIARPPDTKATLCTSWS
# T5: RHPN1, Q8TCX5
# T5 sequence (Q8TCX5 508-602, limits assumed, looked up): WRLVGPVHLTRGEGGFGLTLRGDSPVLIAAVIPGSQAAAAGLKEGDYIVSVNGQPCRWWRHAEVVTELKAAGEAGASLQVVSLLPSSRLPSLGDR
# T6: DLG3_1, Q92796
# T6 sequence (Q92796 125-227, limits assumed, looked up): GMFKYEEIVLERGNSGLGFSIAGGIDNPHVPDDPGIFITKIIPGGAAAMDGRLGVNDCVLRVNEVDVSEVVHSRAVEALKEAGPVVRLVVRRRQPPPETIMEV
# T7: LIN7B, Q9HAP6
# T7 sequence (Q9HAP6 88-185, limits assumed, looked up): T1 sequence (Q9NUP9 88-185, limits assumed, looked up) with S2A, E13D, I35V, I40V, H65Q, K79S, K89R, S96A
# T8: MPDZ_5, O75970
# T8 sequence (O75970 695-796, limits assumed, looked up): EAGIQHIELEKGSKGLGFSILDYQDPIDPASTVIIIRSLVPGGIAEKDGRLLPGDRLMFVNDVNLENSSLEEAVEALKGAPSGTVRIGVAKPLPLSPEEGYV
# T9: DFNB31_2, Q9P202
# T9 sequence (Q9P202 274-371, limits assumed, looked up): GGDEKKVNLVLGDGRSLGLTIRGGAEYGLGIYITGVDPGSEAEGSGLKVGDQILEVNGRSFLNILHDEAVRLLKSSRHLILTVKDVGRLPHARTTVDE
# T10: MPP7, Q5T2T1
# T10 sequence (Q5T2T1 134-230, limits assumed, looked up): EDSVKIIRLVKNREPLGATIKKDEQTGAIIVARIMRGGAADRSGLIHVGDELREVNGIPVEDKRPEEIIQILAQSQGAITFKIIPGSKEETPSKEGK
# T11: NHERF3_3, Q5T2W1
# T11 sequence (Q5T2W1 238-333, limits assumed, looked up): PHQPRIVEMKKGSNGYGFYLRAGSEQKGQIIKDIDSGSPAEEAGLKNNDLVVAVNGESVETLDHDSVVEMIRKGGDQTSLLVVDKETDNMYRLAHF
# T12: PTPN13_1, Q12923
# T12 sequence (Q12923 1088-1188, limits assumed, looked up): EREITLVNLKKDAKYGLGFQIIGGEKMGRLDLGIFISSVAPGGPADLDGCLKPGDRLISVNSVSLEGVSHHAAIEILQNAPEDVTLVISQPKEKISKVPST
# T13: PDZRN3_1, Q9UPQ7
# T13 sequence (Q9UPQ7 244-349, limits assumed, looked up): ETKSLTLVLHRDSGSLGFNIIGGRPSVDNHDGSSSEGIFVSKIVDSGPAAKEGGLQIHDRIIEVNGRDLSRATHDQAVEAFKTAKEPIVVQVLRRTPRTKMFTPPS
# B1: SLC1A5, Q15758 (peptide)
# chain: TVASEKESVM
# B2: VANGL1, Q8TAA9 (peptide)
# chain: VLRLQSETSV
# Biological target: T1, LIN7C, Q9NUP9
# Experiment: holdup assay
# Set-up: key: below the threshold = too weak to quantify, mostly under pKd 3.1 to 4
# Conditions: plain residues with an end cap or a label only (N-terminal biotin on a linker: ttds)
row,pKd,Binder
1,3.62,B1
2,3.94,B2

# Biological target: MAGI3_2, Q5TCQ9
# Sequence (Q5TCQ9 398-503): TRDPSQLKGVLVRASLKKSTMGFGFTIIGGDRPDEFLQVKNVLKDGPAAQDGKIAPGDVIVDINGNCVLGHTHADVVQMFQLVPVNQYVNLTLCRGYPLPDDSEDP
# Experiment: holdup assay
# Set-up: key: below the threshold = too weak to quantify, mostly under pKd 3.1 to 4
# Conditions: plain residues with an end cap or a label only (N-terminal biotin on a linker: ttds)
row,pKd,Binder
1,below the threshold,B1
2,5.14,B2

# Biological target: T2, RAPGEF6, Q8TEU7
# Experiment: holdup assay
# Set-up: key: below the threshold = too weak to quantify, mostly under pKd 3.1 to 4
# Conditions: plain residues with an end cap or a label only (N-terminal biotin on a linker: ttds)
row,pKd,Binder
1,below the threshold,B1
2,below the threshold,B2

# Biological target: FRMPD2_1, Q68DX3
# Sequence (Q68DX3 770-861): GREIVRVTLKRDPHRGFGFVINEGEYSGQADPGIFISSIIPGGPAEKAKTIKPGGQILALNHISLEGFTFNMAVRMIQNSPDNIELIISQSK
# Experiment: holdup assay
# Set-up: key: below the threshold = too weak to quantify, mostly under pKd 3.1 to 4
# Conditions: plain residues with an end cap or a label only (N-terminal biotin on a linker: ttds)
row,pKd,Binder
1,below the threshold,B1
2,below the threshold,B2

# Biological target: Inadl_6, Q8NI35
# Sequence (Q8NI35 1058-1167): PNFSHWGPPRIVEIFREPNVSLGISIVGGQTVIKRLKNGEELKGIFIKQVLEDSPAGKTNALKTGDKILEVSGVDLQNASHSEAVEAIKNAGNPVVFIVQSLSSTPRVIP
# Experiment: holdup assay
# Set-up: key: below the threshold = too weak to quantify, mostly under pKd 3.1 to 4
# Conditions: plain residues with an end cap or a label only (N-terminal biotin on a linker: ttds)
row,pKd,Binder
1,below the threshold,B1
2,below the threshold,B2

# Biological target: SCRIB_3, Q14160
# Sequence (Q14160 999-1103): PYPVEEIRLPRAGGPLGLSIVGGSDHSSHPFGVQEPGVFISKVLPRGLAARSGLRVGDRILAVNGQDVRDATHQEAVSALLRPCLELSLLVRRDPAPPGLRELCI
# Experiment: holdup assay
# Set-up: key: below the threshold = too weak to quantify, mostly under pKd 3.1 to 4
# Conditions: plain residues with an end cap or a label only (N-terminal biotin on a linker: ttds)
row,pKd,Binder
1,3.97,B1
2,4.54,B2

# Biological target: T3, SNTB1, Q13884
# Experiment: holdup assay
# Set-up: key: below the threshold = too weak to quantify, mostly under pKd 3.1 to 4
# Conditions: plain residues with an end cap or a label only (N-terminal biotin on a linker: ttds)
row,pKd,Binder
1,4.07,B1
2,4.57,B2

# Biological target: T4, TIAM2, Q8IVF5
# Experiment: holdup assay
# Set-up: key: below the threshold = too weak to quantify, mostly under pKd 3.1 to 4
# Conditions: plain residues with an end cap or a label only (N-terminal biotin on a linker: ttds)
row,pKd,Binder
1,below the threshold,B1
2,below the threshold,B2

# Biological target: T5, RHPN1, Q8TCX5
# Experiment: holdup assay
# Set-up: key: below the threshold = too weak to quantify, mostly under pKd 3.1 to 4
# Conditions: plain residues with an end cap or a label only (N-terminal biotin on a linker: ttds)
row,pKd,Binder
1,3.67,B1
2,4.37,B2

# Biological target: NHERF4_1, Q86UT5-2
# Sequence (Q86UT5 other isoform, or with tags, fused parts or gaps): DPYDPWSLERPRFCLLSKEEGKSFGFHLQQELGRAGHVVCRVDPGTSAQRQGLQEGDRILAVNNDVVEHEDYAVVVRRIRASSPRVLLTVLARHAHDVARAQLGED
# Experiment: holdup assay
# Set-up: key: below the threshold = too weak to quantify, mostly under pKd 3.1 to 4
# Conditions: plain residues with an end cap or a label only (N-terminal biotin on a linker: ttds)
row,pKd,Binder
1,below the threshold,B1
2,below the threshold,B2

# Biological target: T6, DLG3_1, Q92796
# Experiment: holdup assay
# Set-up: key: below the threshold = too weak to quantify, mostly under pKd 3.1 to 4
# Conditions: plain residues with an end cap or a label only (N-terminal biotin on a linker: ttds)
row,pKd,Binder
1,below the threshold,B1
2,3.96,B2

# Biological target: DLG4_1, P78352
# Sequence (P78352 62-152): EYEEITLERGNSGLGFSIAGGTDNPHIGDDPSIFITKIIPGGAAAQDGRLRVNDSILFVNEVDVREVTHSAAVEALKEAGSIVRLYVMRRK
# Experiment: holdup assay
# Set-up: key: below the threshold = too weak to quantify, mostly under pKd 3.1 to 4
# Conditions: plain residues with an end cap or a label only (N-terminal biotin on a linker: ttds)
row,pKd,Binder
1,3.56,B1
2,4.4,B2

# Biological target: MAGI1_1, Q96QZ7
# Sequence (Q96QZ7 1-106): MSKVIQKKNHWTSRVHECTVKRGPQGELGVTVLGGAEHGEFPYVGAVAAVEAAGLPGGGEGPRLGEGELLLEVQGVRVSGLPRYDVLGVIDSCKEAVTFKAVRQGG
# Experiment: holdup assay
# Set-up: key: below the threshold = too weak to quantify, mostly under pKd 3.1 to 4
# Conditions: plain residues with an end cap or a label only (N-terminal biotin on a linker: ttds)
row,pKd,Binder
1,below the threshold,B1
2,below the threshold,B2

# Biological target: T7, LIN7B, Q9HAP6
# Experiment: holdup assay
# Set-up: key: below the threshold = too weak to quantify, mostly under pKd 3.1 to 4
# Conditions: plain residues with an end cap or a label only (N-terminal biotin on a linker: ttds)
row,pKd,Binder
1,below the threshold,B1
2,3.67,B2

# Biological target: T8, MPDZ_5, O75970
# Experiment: holdup assay
# Set-up: key: below the threshold = too weak to quantify, mostly under pKd 3.1 to 4
# Conditions: plain residues with an end cap or a label only (N-terminal biotin on a linker: ttds)
row,pKd,Binder
1,below the threshold,B1
2,below the threshold,B2

# Biological target: T9, DFNB31_2, Q9P202
# Experiment: holdup assay
# Set-up: key: below the threshold = too weak to quantify, mostly under pKd 3.1 to 4
# Conditions: plain residues with an end cap or a label only (N-terminal biotin on a linker: ttds)
row,pKd,Binder
1,below the threshold,B1
2,below the threshold,B2

# Biological target: LNX1_3, Q8TBB1
# Sequence (Q8TBB1 500-596): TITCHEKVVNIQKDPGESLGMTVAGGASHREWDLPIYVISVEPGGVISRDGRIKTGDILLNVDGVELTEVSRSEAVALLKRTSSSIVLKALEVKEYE
# Experiment: holdup assay
# Set-up: key: below the threshold = too weak to quantify, mostly under pKd 3.1 to 4
# Conditions: plain residues with an end cap or a label only (N-terminal biotin on a linker: ttds)
row,pKd,Binder
1,below the threshold,B1
2,below the threshold,B2

# Biological target: T10, MPP7, Q5T2T1
# Experiment: holdup assay
# Set-up: key: below the threshold = too weak to quantify, mostly under pKd 3.1 to 4
# Conditions: plain residues with an end cap or a label only (N-terminal biotin on a linker: ttds)
row,pKd,Binder
1,below the threshold,B1
2,below the threshold,B2

# Biological target: GORASP1, Q9BQQ3
# Sequence (Q9BQQ3 1-208): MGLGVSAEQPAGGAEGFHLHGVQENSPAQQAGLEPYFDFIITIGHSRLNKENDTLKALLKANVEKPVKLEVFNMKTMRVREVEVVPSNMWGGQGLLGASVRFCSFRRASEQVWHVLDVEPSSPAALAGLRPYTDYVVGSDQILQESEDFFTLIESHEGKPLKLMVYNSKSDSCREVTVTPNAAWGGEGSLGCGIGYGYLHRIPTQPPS
# Experiment: holdup assay
# Set-up: key: below the threshold = too weak to quantify, mostly under pKd 3.1 to 4
# Conditions: plain residues with an end cap or a label only (N-terminal biotin on a linker: ttds)
row,pKd,Binder
1,below the threshold,B1
2,below the threshold,B2

# Biological target: MAGI2_2, Q86UL8
# Sequence (Q86UL8 410-522): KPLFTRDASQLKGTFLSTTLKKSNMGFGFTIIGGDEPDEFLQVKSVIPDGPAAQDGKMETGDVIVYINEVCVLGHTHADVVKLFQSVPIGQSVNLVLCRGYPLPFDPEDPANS
# Experiment: holdup assay
# Set-up: key: below the threshold = too weak to quantify, mostly under pKd 3.1 to 4
# Conditions: plain residues with an end cap or a label only (N-terminal biotin on a linker: ttds)
row,pKd,Binder
1,below the threshold,B1
2,4.47,B2

# Biological target: T11, NHERF3_3, Q5T2W1
# Experiment: holdup assay
# Set-up: key: below the threshold = too weak to quantify, mostly under pKd 3.1 to 4
# Conditions: plain residues with an end cap or a label only (N-terminal biotin on a linker: ttds)
row,pKd,Binder
1,below the threshold,B1
2,below the threshold,B2

# Biological target: SNX27, Q96L92
# Experiment: holdup assay
# Set-up: key: below the threshold = too weak to quantify, mostly under pKd 3.1 to 4
# Conditions: plain residues with an end cap or a label only (N-terminal biotin on a linker: ttds)
row,pKd,Binder
1,5.29,B1
2,5.7,B2

# Biological target: T12, PTPN13_1, Q12923
# Experiment: holdup assay
# Set-up: key: below the threshold = too weak to quantify, mostly under pKd 3.1 to 4
# Conditions: plain residues with an end cap or a label only (N-terminal biotin on a linker: ttds)
row,pKd,Binder
1,below the threshold,B1
2,below the threshold,B2

# Biological target: T13, PDZRN3_1, Q9UPQ7
# Experiment: holdup assay
# Set-up: key: below the threshold = too weak to quantify, mostly under pKd 3.1 to 4
# Conditions: plain residues with an end cap or a label only (N-terminal biotin on a linker: ttds)
row,pKd,Binder
1,3.61,B1
2,4.4,B2
